In general, koff refers to a measure of how fast the partners let go of each other. A higher koff goes with a short-lived complex. One may read the kon as a measure of how fast the partners come together.

Assay [1] concerns the target TtSlyD-FKBP-A (Thermus thermophilus). As to the kind of experiment: SPR (Biacore), captured antibody, TtSlyD_A as analyte 0-300 nM, Langmuir fit. (In general: SPR reads the build-up and loss of mass on a sensor chip optically.)
The target of assay [2] is TtSlyD-FKBP-B (Thermus thermophilus). Description: SPR (Biacore), captured antibody, TtSlyD_B as analyte 0-300 nM, Langmuir fit.
Assay [3] has the same target. Description: SPR (Biacore), 25 C; antibody (89 RU) captured on goat anti-rabbit Fc-gamma, TtSlyD-B as analyte; Langmuir fit.
Assay [4] addresses TtSlyD-FKBP-A (Thermus thermophilus). As to the kind of experiment: SPR (Biacore), 25 C; antibody (92 RU) captured on goat anti-rabbit Fc-gamma, TtSlyD-A as analyte; Langmuir fit.
Assay [5] shares this target. As to the kind of experiment: SPR (Biacore B3000), antibody captured by GAR-Fcγ, scaffold in solution, 25° C.; dissociation beyond instrument limit.
The target in assay [6] is TtSlyD-FKBP-B (Thermus thermophilus). The assay is described as above.
Assay [7] concerns the target TtSlyD-FKBP clone 5F8 (Thermus thermophilus). As to the kind of experiment: SPR (Biacore), 25 C; 1141 RU 0712pS4D5 captured on goat anti-rabbit antibody, scaffold 5F8 (18 kDa) captured by it.
Assay [8] has as its target TtSlyD-FKBP clone 3 C1 (Thermus thermophilus). Description: SPR (Biacore), 25 C; 1253 RU 0712pS4D5 captured on goat anti-rabbit antibody, scaffold 3C1 (18 kDa) captured by it.
Assay [9] concerns the target TtSlyD-FKBP clone 3 F12 (Thermus thermophilus). As to the kind of experiment: SPR (Biacore), 25 C; 1268 RU 0712pS4D5 captured on goat anti-rabbit antibody, scaffold 3F12 (18 kDa) captured by it.
Assay [10] concerns the target TtSlyD-FKBP-A (Thermus thermophilus). As to the kind of experiment: SPR (Biacore), 25 C; antibody captured on goat anti-rabbit Fc-gamma, TtSlyD-A as analyte; kd set to the instrument limit of 1e-05 1/s.
Assay [11] has as its target TtSlyD-FKBP-B (Thermus thermophilus). Description: SPR (Biacore), 25 C; antibody captured on goat anti-rabbit Fc-gamma, TtSlyD-B as analyte; kd set to the instrument limit of 1e-05 1/s.
The target in assay [12] is TtSlyD-FKBP-A (Thermus thermophilus). As to the kind of experiment: SPR (Biacore), 25 C; antibody captured on goat anti-rabbit Fc-gamma, TtSlyD-A as analyte; apparent affinity, kd set to the instrument limit.
Assay [13] concerns the target TtSlyD-FKBP-B (Thermus thermophilus). Description: SPR (Biacore), 25 C; antibody captured on goat anti-rabbit Fc-gamma, TtSlyD-B as analyte; apparent affinity, kd set to the instrument limit.
Assay [14] has the same target. Description: SPR (Biacore), 25 C; antibody (212 RU) captured on goat anti-rabbit Fc-gamma, TtSlyD-B as analyte; Langmuir fit.
Assay [15] concerns the target TtSlyD-FKBP-A (Thermus thermophilus). Description: SPR (Biacore), 25 C; antibody (223 RU) captured on goat anti-rabbit Fc-gamma, TtSlyD-A as analyte; Langmuir fit.

Sequence of TtSlyD-FKBP-B (Thermus thermophilus) (main, as listed by the source): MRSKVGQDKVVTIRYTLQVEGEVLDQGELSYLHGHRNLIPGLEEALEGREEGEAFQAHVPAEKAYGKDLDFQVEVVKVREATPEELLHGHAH
Sequence of TtSlyD-FKBP-A (Thermus thermophilus) (main, as listed by the source): as above
Sequence of TtSlyD-FKBP clone 3 F12 (Thermus thermophilus) (main, as listed by the source): as above
Sequence of TtSlyD-FKBP clone 3 C1 (Thermus thermophilus) (main, as listed by the source): as above
Sequence of TtSlyD-FKBP clone 5F8 (Thermus thermophilus) (main, as listed by the source): as above

B1: RabMab 0712pS4D3 (antibody, V domains shown)
VH: CQSLEESGGRLVKPGGSLTLTCTVSGFSLSSYAMIWVRQAPGKGLEWIGVISSLGITYYANWAKGRFTISKASTTVDLKIASPTIGDTATYFCARGFFAGGSNYYPLWGPGTLVTVSS
VL: CQASETIINWCSWYQQKPGQPPKLLIYKASNLESGVPSRFKGSGSGTEFTLTISDLECADAATYYCQQGYGYRDLENPFGGGTEVVVKG
For B1, the Kd amounted to 0.03 nM in assay [1], 0.037 nM in assay [2], 0.0299 nM in [12] and 0.0369 nM in assay [13]. Also, the MR (Molar Ratio) in assay [1] came out at 1.7; in assay [2] it was 1.9; in [3] it was 1.9; in assay [4], 1.7; in assay [7], 2; in assay [8], 2. Besides, the MR (Molar Ratio) in assay [9] was found to be 2. For the same molecule, the koff was under 1e-05 s⁻¹ in [1]; under 1e-05 s⁻¹ in assay [2]; under 1e-05 s⁻¹ in assay [5]; under 1e-05 s⁻¹ in assay [6]; 1e-05 s⁻¹ in assay [10]; 1e-05 s⁻¹ in assay [11]. In addition, the kon in [1] came out at 335000 M⁻¹ s⁻¹; in [2], 271000 M⁻¹ s⁻¹; in assay [3], 271000 M⁻¹ s⁻¹; in assay [4] it was 335000 M⁻¹ s⁻¹. For the same molecule, the scaffold (RU) was determined as 254 RU in assay [7], 267 RU in assay [8] and 286 RU in assay [9].

B2: RabMab 0612pS3A8 (antibody, V domains shown)
VH: CQSVEESGGRLVTPGTPLTLTCTVSGFSLSSNAISWVRQAPGKGLEWIGIINNIGSTWYASWAKGRFTISKASSTTVDLKMTSLTTEDTATYFCARIVVNYNLGPYNLWGPGTLVTVSS
VL: AFELTQTPSSVEAAVGGTVTIKCQATENIGNALAWYQQKPGQPPKLLIYRASTLASGVPSRFKGSGSGTDFTLTISDLECADAATYYCQSYYDIYTYVFGGGTEL
Regarding B2, the Kd in [1] amounted to 0.008 nM; in [2], 0.023 nM; in assay [12], 0.00787 nM; in assay [13] it was 0.0234 nM. In addition, the MR (Molar Ratio) in [1] is 1.2; in assay [2], 1.4; in [14] it was 1.4; in assay [15], 1.2. Also, the off-rate constant (koff) in assay [1] is under 1e-05 s⁻¹; in assay [2] it was under 1e-05 s⁻¹; in [5], under 1e-05 s⁻¹; in assay [6], under 1e-05 s⁻¹; in assay [10], 1e-05 s⁻¹; in [11], 1e-05 s⁻¹. In addition, the on-rate constant (kon) in assay [1] stood at 1.27e+06 M⁻¹ s⁻¹; in assay [2], 428000 M⁻¹ s⁻¹; in [14] it was 428000 M⁻¹ s⁻¹; in assay [15], 1.27e+06 M⁻¹ s⁻¹.
